Molecular target: human IgE (human) (UniProt P01854)
Test: Western blots of His tag IPSE incubated with human IgE (100-100,000 ng/ml), compared with IgG; called competitive inhibition experiments in paragraph 33

Work on recombinant His tag IPSE fusion protein yielded a fold higher affinity than to IgG of 100 times.
